Data reported in PMC9760430, “A stapled chromogranin A-derived peptide homes in on tumors that express αvβ6 or αvβ8 integrins” (International Journal of Biological Sciences, 2023).

Tests used:
[1] = test system: BxPC-3 cells (αvβ6+/αvβ8-); assay: binding of peptide-IRDye conjugates to cultured BxPC-3 cells; format: cell-based, human; conditions: 0.32-200 nM, 1 h, 37 °C; bound NIR fluorescence
[2] = plasma pharmacokinetics in mice; format: in vivo; conditions: BALB/c mice, 1 nmol i.v.; plasma fluorescence 5-1440 min; two-phase exponential decay fit; 4 mice per point
Experimental: Figure S13. Plasma pharmacokinetics of 5a-IRDye in mice.
Eight BALB/c mice were divided in 2 groups (4 mice/group) and injected i.v. with 5a-IRDye (1 nmol). Their blood was then collected into heparinized tubes at 5, 30, 120, 240, and 1440 min (group 1) or after 15, 60, 180, 360, and 1440 min (group 2). Plasma samples (20 µl) were diluted with PBS (50 µl, final volume) and transferred to a black 96-well microtiter plate. The amount of fluorescence in each sample was then quantified using an Infinite 200Pro reader plate (TECAN, excitation wavelength: 766 nm; emission wavelength: 810 nm; excitation bandwidth: 9 nm; emission bandwidth: 20 nm; gain: 180 optimal (100%) and number of flashes:
25). (Dots, mean ± SE, 4 mice). Plasma half-life of 5a-IRdye was calculated using a two-phase exponential decay equation (GraphPad Prism software, San Diego California).
Chromogranin A binds to avb6-integrin and promotes wound healing in mice. Cell Mol […]
(1 picture or pasted object on this page, not shown here)

[3] = test system: orthotopically implanted BxPC-3 tumors; assay: NIR-fluorescence imaging, orthotopic BxPC-3 pancreatic adenocarcinoma in nude mice; conditions: ex vivo NIR fluorescence, 24 h after 1.2 nmol i.v.
Experimental: Mice were injected with peptide-IRDye conjugate (~1 nmol) into the tail vein and imaged at various time points (0-72 h) using the IVIS Spectrum CT Imaging System (PerkinElmer) (see Supplemental Materials). For blocking experiments, mice were injected intravenously with unlabeled peptide 5a (128 nmol/mouse) 10 min before 5a-IRDye.
Figure 3 5a-IRDye homes in on orthotopically implanted BxPC-3 tumors. Nu/nu mice were orthotopically implanted with a Matrigel solution containing BxPC-3 cells or a Matrigel solution without cells (n=3-4 mice). After 18 days, mice were injected i.v. with 5a-IRDye (1.2 nmol), and NIR images were acquired after 24 h. A control mouse, which was not surgically manipulated, was injected with the vehicle and used as a reference for quantification of autofluorescence in the NIR region. (A) Representative fluorescence images of the exposed pancreas of control and tumor-bearing mice injected with or without 5a-IRDye as indicated. (B) Ex vivo fluorescence imaging and photographs of the removed pancreas. […]
Images were acquired with three-four mice simultaneously. […] For the quantification of the fluorescence uptake by the exposed pancreas the left kidney was surgically removed before imaging. Regions of interest (ROI) were drawn on the images, and the average (Avg) radiant efficiency was calculated using the Living Image 4.3.1 software (PerkinElmer). […]

SMILES | binding of conjugate to BxPC-3 cells [1] | plasma half-life [2] | accumulation in other explanted organs [3]
CC1(C)C(/C=C/C2=C(Oc3ccc(S(=O)(=O)O)cc3)C(=C\C=C3/N(CCCCCC(=O)NCCN4C(=O)CC(SC[C@H](N)C(=O)O)C4=O)c4ccc(S(=O)(=O)O)cc4C3(C)C)/CCC2)=[N+](CCCCS(=O)(=O)O)c2ccc(S(=O)(=O)[O-])cc21 (stereo partly drawn) [Cys-IRDye] | little or no binding | – | –
CC[C@H](C)[C@H](NC(=O)[C@H](CCCNC(=N)N)NC(=O)[C@H](CC(C)C)NC(=O)[C@H](CC(=O)O)NC(=O)CNC(=O)[C@H](CCCNC(=N)N)NC(=O)[C@H](CC(C)C)NC(=O)[C@@H](NC(=O)[C@H](CCC(=O)O)NC(=O)[C@H](Cc1ccccc1)NC(=O)[C@@H](N)CSC1CC(=O)N(CCNC(=O)CCCCCN2C(=CC=C3CCCC(C=CC4=[N+](CCCCS(=O)(=O)[O-])c5ccc(S(=O)(=O)O)cc5C4(C)C)=C3Oc3ccc(S(=O)(=O)O)cc3)C(C)(C)c3cc(S(=O)(=O)O)ccc32)C1=O)[C@@H](C)O)C(=O)N[C@@H](CC(C)C)C(=O)N[C@@H](CO)C(=O)N[C@H](C(=O)N[C@@H](CC(C)C)C(=O)N[C@@H](CCCNC(=N)N)C(=O)N[C@H]1Cc2cn(nn2)CCCC[C@@H](C(=O)N[C@@H](CCCCN)C(=O)N[C@@H](CCC(=O)O)C(=O)N[C@@H](CC(C)C)C(=O)N[C@@H](CCC(N)=O)C(=O)N[C@@H](CC(=O)O)C(N)=O)NC(=O)[C@H](CC(C)C)NC(=O)[C@H](CC(N)=O)NC(=O)[C@H](CCC(N)=O)NC1=O)[C@@H](C)CC (stereo partly drawn) [5a-IRDye] | – | ~ 8 min | accumulated also in kidney, lung, and liver, and little or not at all in heart, brain, muscle, bone, spleen, intestine, and stomach
